# Reference: patent US20160039903A1 (Stanford University, published 2016)
# Where two headings read alike, the source gives them in different places.
# T1: human PD-L2 displayed on yeast (residues 20-123) (human; S. cerevisiae, UniProt Q9BQ51 20-123)
# T1 construct: also called yeast displaying hPD-L2; ectodomain of hPD-L2; not shown: Aga2 of S. cerevisiae (pYAL vector); linker and tag between not g
# T1 sequence: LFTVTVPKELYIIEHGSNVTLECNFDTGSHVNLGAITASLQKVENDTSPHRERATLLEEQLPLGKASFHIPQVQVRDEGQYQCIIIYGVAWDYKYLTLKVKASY
# How the values were obtained:
# [1] = biological target: T2, human PD-L1 on cells (human, UniProt Q9NZQ7 19-290); experiment: flow cytometry of a dissociated CT26 hPD-L1 positive tumor 4 h after intraperitoneal injection of both labeled agents; same quadrant of the PD-L1 negative tumor: 3.97 [panel CT26, hPD-L1 positive]
# T2 construct: also called hPD-L1; PD-L1 on IFNγ-induced SK-MEL-28 (SKMEL28) cells
# T2 sequence (Q9NZQ7 19-290 limits assumed): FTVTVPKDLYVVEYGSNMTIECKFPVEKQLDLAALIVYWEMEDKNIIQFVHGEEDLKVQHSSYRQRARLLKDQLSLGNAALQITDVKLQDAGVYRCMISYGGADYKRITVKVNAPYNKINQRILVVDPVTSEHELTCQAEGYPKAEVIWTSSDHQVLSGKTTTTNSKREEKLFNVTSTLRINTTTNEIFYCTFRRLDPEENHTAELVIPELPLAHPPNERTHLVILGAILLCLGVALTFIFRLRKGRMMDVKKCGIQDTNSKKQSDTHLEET
# [2] = biological target: T3, recombinant biotinylated human PD-L1 ectodomain (IgV and IgC domains, residues 19-239) (human, UniProt Q9NZQ7 19-239, enzymatically biotinylated (BirA) on the biotin acceptor peptide); experiment: surface plasmon resonance, biotinylated hPD-L1 immobilized on a streptavidin chip; column head 'PD-L1 affinity'
# T3 construct: also called biotinylated hPD-L1; biotinylated PD-L1; not shown: carboxy-terminal 8x histidine tag
# T3 sequence (Q9NZQ7 other isoform, or with tags, fused parts or gaps): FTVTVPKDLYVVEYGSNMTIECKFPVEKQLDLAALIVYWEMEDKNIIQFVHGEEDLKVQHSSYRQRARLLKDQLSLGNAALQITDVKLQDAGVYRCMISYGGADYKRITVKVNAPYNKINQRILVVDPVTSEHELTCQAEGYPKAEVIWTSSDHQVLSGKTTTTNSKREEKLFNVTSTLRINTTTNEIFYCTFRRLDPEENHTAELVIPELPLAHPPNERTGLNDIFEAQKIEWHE
# [3] = biological target: T3, recombinant biotinylated human PD-L1 …; experiment: as above; remark: listed apart in the source
# [4] = biological target: T4, human PD-L1 displayed on yeast (residues 19-132) (human; S. cerevisiae, UniProt Q9NZQ7 19-132); experiment: competition flow cytometry on yeast displaying human PD-L1; competitor probe: labeled native PD-1 streptavidin tetramer
# T4 construct: also called yeast displaying human PD-L1; not shown: Aga2 of S. cerevisiae (pYAL vector); linker and tag between not g
# T4 sequence (Q9NZQ7 19-132 limits assumed): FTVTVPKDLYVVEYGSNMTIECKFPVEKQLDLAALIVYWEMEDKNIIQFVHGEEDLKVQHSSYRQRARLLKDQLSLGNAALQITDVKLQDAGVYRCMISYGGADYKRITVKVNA
# [5] = biological target: T5, mouse PD-L1 on B16-F10 cells (mouse, UniProt Q9EP73 19-290); experiment: competition flow cytometry on murine B16-F10 cells, 100 nM PD-1 tetramer as competitor; wild-type hPD-1 on murine B16-F10 cells
# T5 construct: whole, on cells; also called mPD-L1; PD-L1 on murine B16-F10 cells
# T5 sequence (Q9EP73 19-290): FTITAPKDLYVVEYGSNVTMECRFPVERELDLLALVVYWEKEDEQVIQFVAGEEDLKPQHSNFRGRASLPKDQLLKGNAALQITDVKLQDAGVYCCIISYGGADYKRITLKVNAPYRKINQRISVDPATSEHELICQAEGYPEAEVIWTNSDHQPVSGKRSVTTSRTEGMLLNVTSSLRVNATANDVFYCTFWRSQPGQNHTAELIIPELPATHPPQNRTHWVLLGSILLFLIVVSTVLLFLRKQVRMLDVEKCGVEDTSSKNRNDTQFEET
# [6] = biological target: T3, recombinant biotinylated human PD-L1 …; experiment: SPR, biotinylated PD-L1 on streptavidin chip
# [7] = biological target: T1, human PD-L2 displayed on yeast …; experiment: competition flow cytometry on yeast displaying the ectodomain of hPD-L2, 100 nM PD-1 tetramer as competitor; wild-type PD-1 on yeast displaying hPD-L2
# [8] = biological target: T2, human PD-L1 on cells; experiment: competition flow cytometry on IFNγ-induced SK-MEL-28 cells, 100 nM labeled PD-1 tetramer as competitor
# [9] = biological target: T1, human PD-L2 displayed on yeast …; experiment: competition flow cytometry on yeast displaying human PD-L2; competitor probe: labeled native PD-1 streptavidin tetramer
Molecule,Kd [2] [nM],Kd [3] [nM],also measured
"AlexaFluor 488-conjugated anti-hPD-L1 antibody (clone 29E.2A3, BioLegend)",,,"percent of cells in the quadrant HAC 594 negative, Anti-hPD-L1 488 positive [1]: 2.22%"
"G2 4-12 (designed binder, also called Generation 2, clone 4-12) PD-1 variant IgV domain: DSPDRPWNPPTFSPALLVVTEGDNATFTCSFSNTSESFHVVWHYESPSGQTDTLAAFPEDRSQPGQDARFRVTQLPNGRDFHLSVVRARRNDSGTYVCGIISLAPKIQIKESLRAELRVTER",0.218,0.218,
"G2 4-5 (designed binder, also called Generation 2, clone 4-5) PD-1 variant IgV domain: DSPDRPWNPPTFSPALLVVTEGDNATFTCSFSNTSESFHVVWHRESPSSQTDTLAAFPEDRSQPGPDARFRVTQLPNGRDFQLSVVRARRNDSGTYVCGVISLAPKIQIKESLRAELRVTER",0.196,0.196,
"G1 4-1 (designed binder, also called Generation 1, clone 4-1) PD-1 variant IgV domain: DSPDRPWNPPTFSPALLVVTEGDNATFTCSFSNTSESFRLVWHRESPGYETDTLASFPEDRSTPLPDCRFRVTQLPNGRDFHMSVVRARRNDSGTYVCGAIAFHPVIQIKESLRAELRVTER",7.78,7.78,IC50 (read off the curve) [4]: ~100 nM
"G1 4-4 (designed binder, also called Generation 1, clone 4-4) PD-1 variant IgV domain: DSPDRPWNPPTFSPALLVVTEGDNATFTCSFSNTSESFRLVWHRESPNNHAYTLALFPEDRSLPFPDCRFRVTQLPNGRDFHMSVVRARRNDSGTYICGAITFDPRIQIKESLRAELRVTER",10.7,10.7,IC50 (read off the curve) [4]: ~100 nM
"wild-type human PD-1 IgV domain (residues 26-147), native PD-1 mimic polypeptide (receptor, Soluble monomer secreted from High Five insect cells; also called wild-type hPD-1; WT PD-1 monomer) DSPDRPWNPPTFSPALLVVTEGDNATFTCSFSNTSESFVLNWYRMSPSNQTDKLAAFPEDRSQPGQDCRFRVTQLPNGRDFHMSVVRARRNDSGTYLCGAISLAPKAQIKESLRAELRVTERHHHHHHHH",3880,3880,IC50 [5]: 2600 nM; dissociation half-life [6]: < 1 s; IC50 [7]: 2500 nM; IC50 [8]: 8200 nM
G2 4-2 (designed binder) DSPDRPWNPPTFSPALLVVTEGDNATFTCSFSNTSESFHIIWHRESPSGQTDTLAAFPEDRSQPGQDARFRVTQLPNGRDFHLSVVRARRNDSGTYVCGVISLAPKIQIKESLRAELRVTERHHHHHHHH,0.222,0.222,binding result [9]: no binding (tested: 1e-6 M (Log[Inhibitor (M)] = -6))
"G2 4-1 (Generation 2, clone 4-1) (designed binder) DSPDRPWNPPTFSPALLVVTEGDNATFTCSFSNTSESFHVVWHRESPSGQTDTLAAFPEDRSQPGPDARFRVTQLPNGRDFHLSVVRARRNDSGTYVCGAISLAPKIQIKESLRAELRVTERHHHHHHHH",0.267,0.267,binding result [9]: no binding (tested: 1e-6 M (Log[Inhibitor (M)] = -6))
